Laboratory results published in article PMC7020083.

B1: human CXCL13 (ligand)
chain: VLEVYYTSLRCRCVQESSVFIPRRFIDRIQILPRGNGCPRKEIIVWKKNKSIVCVDPQAEWIQRMMEVLRKRSSSTLPVPVFKRKIP

biological target: hTNFR2-SCP3-Fc (human | ectromelia virus) (UniProt P20333); experiment: SPR; […], single-cycle; 1:1 Langmuir fit
UniProt P20333, sequence (P20333 23-257 limits assumed): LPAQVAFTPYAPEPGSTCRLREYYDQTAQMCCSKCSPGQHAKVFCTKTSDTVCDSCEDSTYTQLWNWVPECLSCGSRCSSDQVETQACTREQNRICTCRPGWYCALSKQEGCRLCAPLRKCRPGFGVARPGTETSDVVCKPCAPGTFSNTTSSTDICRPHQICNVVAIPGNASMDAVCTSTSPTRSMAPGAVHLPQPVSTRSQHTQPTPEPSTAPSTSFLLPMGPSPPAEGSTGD

| Molecule | Kd [nM] | koff [s⁻¹] | kon [M⁻¹ s⁻¹] |
| --- | --- | --- | --- |
| human CCL25 (from UniProt O15444 24-150) (ligand) | 6.75 | 0.00374 | 554000 |
| human CXCL12 (from UniProt P48061 22-93) (ligand) | 49.8 | 0.00825 | 166000 |
| B1 | 21.4 | 0.00155 | 72000 |
